# US20160326232A1 (Janssen / Centocor, published 2016)
# Residue numbers refer to the chain shown, from its start.
# T1: chimpanzee PSMA extracellular domain with 6His and Avi tag (PSMW8), biotinylated (chimpanzee, UniProt Q04609 44-750 (human entry), biotinylated ; Biotinylated, presumably on the Avi tag, which is not in the letters. Glycosylated (expressed in HEK cells). PSMA forms a homodimer; one subunit is given.)
# T1 construct: Expressed in 293HEK-expi cells; buffer with ZnCl2 to stabilize PSMA dimerization; also called chimp PSMA; Pan troglodytes PSMA
# T1 chain: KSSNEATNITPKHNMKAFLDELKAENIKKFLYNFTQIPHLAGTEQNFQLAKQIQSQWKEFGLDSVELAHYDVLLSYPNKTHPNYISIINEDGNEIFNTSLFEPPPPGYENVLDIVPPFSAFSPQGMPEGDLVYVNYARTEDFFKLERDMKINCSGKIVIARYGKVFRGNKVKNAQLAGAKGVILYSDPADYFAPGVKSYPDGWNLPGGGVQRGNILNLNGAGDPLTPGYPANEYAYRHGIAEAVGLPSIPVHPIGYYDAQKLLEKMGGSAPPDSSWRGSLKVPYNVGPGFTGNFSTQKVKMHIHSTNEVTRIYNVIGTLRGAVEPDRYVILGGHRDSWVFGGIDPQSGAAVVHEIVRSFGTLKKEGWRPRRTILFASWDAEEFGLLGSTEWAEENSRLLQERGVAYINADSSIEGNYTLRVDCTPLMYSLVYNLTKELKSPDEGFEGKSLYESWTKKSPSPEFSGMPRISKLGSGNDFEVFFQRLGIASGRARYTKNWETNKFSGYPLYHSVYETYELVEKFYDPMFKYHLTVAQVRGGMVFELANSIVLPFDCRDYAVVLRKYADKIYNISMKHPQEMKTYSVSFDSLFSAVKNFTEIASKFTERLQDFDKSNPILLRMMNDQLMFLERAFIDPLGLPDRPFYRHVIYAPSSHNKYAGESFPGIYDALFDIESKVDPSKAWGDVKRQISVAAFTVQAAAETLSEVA
# T2: cynomolgus monkey PSMA extracellular domain with 6His and Avi tag (PSMW1), biotinylated (cynomolgus monkey, UniProt Q04609 44-750 (human entry), biotinylated ; Biotinylated, presumably on the Avi tag, which is not in the letters. Glycosylated (expressed in HEK cells). PSMA forms a homodimer; one subunit is given.)
# T2 construct: Expressed in 293HEK-expi cells; buffer with ZnCl2 to stabilize PSMA dimerization; A cyno PSMA-Fc fusion was also used in some plate-based pannings; also called cyno PSMA; Macaca Fascicularis PSMA
# T2 chain: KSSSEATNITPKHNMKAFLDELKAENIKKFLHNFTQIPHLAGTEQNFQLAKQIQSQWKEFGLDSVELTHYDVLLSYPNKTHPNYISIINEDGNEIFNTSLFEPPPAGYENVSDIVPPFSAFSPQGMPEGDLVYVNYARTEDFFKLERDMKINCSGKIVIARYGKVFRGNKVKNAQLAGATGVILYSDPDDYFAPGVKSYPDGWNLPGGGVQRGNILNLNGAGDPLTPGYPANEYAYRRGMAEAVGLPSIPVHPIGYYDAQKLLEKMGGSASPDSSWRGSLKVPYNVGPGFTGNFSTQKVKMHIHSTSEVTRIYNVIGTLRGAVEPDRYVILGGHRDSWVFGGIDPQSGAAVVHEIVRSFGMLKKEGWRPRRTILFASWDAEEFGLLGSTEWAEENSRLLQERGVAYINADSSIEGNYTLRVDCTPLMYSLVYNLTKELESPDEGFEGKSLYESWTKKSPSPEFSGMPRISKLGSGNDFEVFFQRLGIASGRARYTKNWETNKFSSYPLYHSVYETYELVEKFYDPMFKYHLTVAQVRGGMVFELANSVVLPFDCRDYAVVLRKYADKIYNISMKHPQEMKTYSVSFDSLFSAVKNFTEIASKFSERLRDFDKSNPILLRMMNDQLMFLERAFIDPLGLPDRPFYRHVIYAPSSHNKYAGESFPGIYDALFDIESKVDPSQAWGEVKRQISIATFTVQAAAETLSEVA
# B1: His-tagged P233FR9-H10 centyrin (designed binder)
# chain: LPAPKNLVVSRVTEDSARLSWTAPDAAFDSFAIGYWEWDDDGEAIVLTVPGSERSYDLTGLKPGTEYPVYIAGVKGGQWSFPLSAIFTT
# notes: FN3 domain (Centyrin), unconjugated; used in the screen and in the crystal structure with cynoPSMA; also called H10 FN3 domain; P233FR9_10; not shown: C-terminal His-tag
# B2: P233FR9P1001_B5-5 (designed binder)
# chain: B1 chain with A32T
# notes: FN3 domain (Centyrin), unconjugated, as screened from E. coli lysate; not shown: C-terminal poly-histidine tag
# B3: P233FR9P1001_H3-1 (designed binder)
# chain: B1 chain with A32P, P68H
# notes: as for B2
# B4: P233FR9P1001_D9 (designed binder)
# chain: B1 chain with A32P, P68W
# notes: as for B2
# B5: P229CR5P819_H11 (designed binder)
# chain: LPAPKNLVVSRVTEDSARLSWDIDEQRDWFDSFLIQYQESEKVGEAIVLTVPGSERSYDLTGLKPGTEYTVSIYGVYHVYRSSNPLSAIFTT
# notes: FN3 domain (Centyrin), unconjugated, as screened from E. coli lysate; also called P229CR9P819-H11; not shown: C-terminal poly-histidine tag
# B6: P258AR6P1070_A05 (designed binder)
# chain: LPAPKNLVVSRVTEDSARLSWTIDEQRDWFDSFLIQYQESEKVGEAIVLTVPGSERSYDLTGLKPGTEYTVSIYGVYHVYRSNPLSAIFTT
# notes: as for B2
# B7: P258AR6P1071_F04 (designed binder)
# chain: B6 chain with T22V
# notes: as for B2
# B8: P258AR6P1071_G03 (designed binder)
# chain: B6 chain with T22D
# notes: as for B2
# B9: P258AR6P1071_D02 (designed binder)
# chain: B6 chain with T22A, D31E
# notes: as for B2
# B10: P258AR6P1070_F09 (designed binder)
# chain: B6 chain with D31E
# notes: as for B2
# B11: P234CR9_A7 (designed binder)
# chain: LPAPKNLVVSRVTEDSARLSWGEQFTIFDSFLIQYQESEKVGEAIVLTVPGSERSYDLTGLKPGTEYTVSIYGASGYEWFHAFGSSNPLSAIFTT
# notes: FN3 domain (Centyrin), unconjugated, as screened from E. coli lysate; also called P234CR9_A07; not shown: C-terminal poly-histidine tag
# B12: P234CR9_H01 (designed binder)
# chain: LPAPKNLVVSRVTEDSARLSWEWWVIPGDFDSFLIQYQESEKVGEAIVLTVPGSERSYDLTGLKPGTEYTVSIYGVVNSGQWNDTSNPLSAIFTT
# notes: as for B2
# Target: T1, chimpanzee PSMA extracellular domain …
# Experiment: hit of CIS-display panning and ELISA screen on biotinylated PSMA (same antigen as in panning; signal at least 10-fold above background); column Antigen species
# Method: (§1) Neutravidin-coated plates were blocked for 1 h in Starting Block T20 (Pierce) and then coated with biotinylated PSMA (using same antigen as in panning) or negative control for 1 h. Plates were rinsed with TBST and diluted lysate was applied to plates for 1 h. Following additional rinses, wells were treated with HRP-conjugated anti-Centyrin antibody (PAB25) for 1 h and then assayed with POD (Roche). Centyrins with signals at least 10-fold above background were selected for further analysis.
row,binding result,Binder
1,binds,B1
2,binds,B2
3,binds,B3
4,binds,B4
5,binds,B5

# Target: T2, cynomolgus monkey PSMA extracellular …
# Experiment: as above
# Method: as §1
row,binding result,Binder
1,binds,B6
2,binds,B7
3,binds,B8
4,binds,B9
5,binds,B10
6,binds,B11
7,binds,B12
